Test results published in US12036234B2, “Heparin conjugated to collagen-binding peptides for targeting to biological and synthetic tissues” (Northwestern University, priority 2017, dated 2024).
Ends that are not written are not given here.

Target: collagen IV (Mus musculus, UniProt P02463+P08122)
Experiment: Cy5 conjugate binding to surface coated collagen IV
Conditions: 30 mg/ml, improved batch, 24 hour incubation
Method: Heparin(Cy5)-CBP conjugates were synthesized using N-(3-dimethylaminopropyl)-N′-ethylcarbodiimide/N-hydroxyl succinimide (EDC/NHS) chemistry (1,2). Briefly, 1 mM of heparin sodium salt or fluorescently pre-conjugated Heparin(Cyanine5) (Hep-Cy5) mixed with 120 mM EDC and 60 mM NHS in 2-(N-morpholino) ethanesulfonic acid (MES) buffer at pH 6.5. This was rocked for 4 hours at 20° C. 1 mM of […] binding peptide (CQDSETRTFY (SEQ ID NO:1), CBP) or a scrambled sequence (CDEFQRSTTY (SEQ ID NO:2), CBPi) was added, and allowed to rock overnight at 4° C. This mixture was dialyzed to exclude molecules […] 3.5 kDa and lyophilized to dry. Four molecular assays were used to assess the functional synthesis of these conjugates. An Ellman's assay is capable of colormetrically labeling the thiol containing cysteine amino acid, and was used to assess the cysteine molar quantity of the whole conjugate (3). A dimethylmethylene blue assay was used to stain the glycosaminoglycan present in heparin conjugates to determine the heparin molar quantity (4). A colormetric kit was used to assess clotting via factor Xa (5). Effective CBP related binding of the conjugate was measured via the Cy5 fluorophore, using a 24 hour incubation with surface coated collagen IV (6). […]

collagen IV, sequence (P02463 173-1669): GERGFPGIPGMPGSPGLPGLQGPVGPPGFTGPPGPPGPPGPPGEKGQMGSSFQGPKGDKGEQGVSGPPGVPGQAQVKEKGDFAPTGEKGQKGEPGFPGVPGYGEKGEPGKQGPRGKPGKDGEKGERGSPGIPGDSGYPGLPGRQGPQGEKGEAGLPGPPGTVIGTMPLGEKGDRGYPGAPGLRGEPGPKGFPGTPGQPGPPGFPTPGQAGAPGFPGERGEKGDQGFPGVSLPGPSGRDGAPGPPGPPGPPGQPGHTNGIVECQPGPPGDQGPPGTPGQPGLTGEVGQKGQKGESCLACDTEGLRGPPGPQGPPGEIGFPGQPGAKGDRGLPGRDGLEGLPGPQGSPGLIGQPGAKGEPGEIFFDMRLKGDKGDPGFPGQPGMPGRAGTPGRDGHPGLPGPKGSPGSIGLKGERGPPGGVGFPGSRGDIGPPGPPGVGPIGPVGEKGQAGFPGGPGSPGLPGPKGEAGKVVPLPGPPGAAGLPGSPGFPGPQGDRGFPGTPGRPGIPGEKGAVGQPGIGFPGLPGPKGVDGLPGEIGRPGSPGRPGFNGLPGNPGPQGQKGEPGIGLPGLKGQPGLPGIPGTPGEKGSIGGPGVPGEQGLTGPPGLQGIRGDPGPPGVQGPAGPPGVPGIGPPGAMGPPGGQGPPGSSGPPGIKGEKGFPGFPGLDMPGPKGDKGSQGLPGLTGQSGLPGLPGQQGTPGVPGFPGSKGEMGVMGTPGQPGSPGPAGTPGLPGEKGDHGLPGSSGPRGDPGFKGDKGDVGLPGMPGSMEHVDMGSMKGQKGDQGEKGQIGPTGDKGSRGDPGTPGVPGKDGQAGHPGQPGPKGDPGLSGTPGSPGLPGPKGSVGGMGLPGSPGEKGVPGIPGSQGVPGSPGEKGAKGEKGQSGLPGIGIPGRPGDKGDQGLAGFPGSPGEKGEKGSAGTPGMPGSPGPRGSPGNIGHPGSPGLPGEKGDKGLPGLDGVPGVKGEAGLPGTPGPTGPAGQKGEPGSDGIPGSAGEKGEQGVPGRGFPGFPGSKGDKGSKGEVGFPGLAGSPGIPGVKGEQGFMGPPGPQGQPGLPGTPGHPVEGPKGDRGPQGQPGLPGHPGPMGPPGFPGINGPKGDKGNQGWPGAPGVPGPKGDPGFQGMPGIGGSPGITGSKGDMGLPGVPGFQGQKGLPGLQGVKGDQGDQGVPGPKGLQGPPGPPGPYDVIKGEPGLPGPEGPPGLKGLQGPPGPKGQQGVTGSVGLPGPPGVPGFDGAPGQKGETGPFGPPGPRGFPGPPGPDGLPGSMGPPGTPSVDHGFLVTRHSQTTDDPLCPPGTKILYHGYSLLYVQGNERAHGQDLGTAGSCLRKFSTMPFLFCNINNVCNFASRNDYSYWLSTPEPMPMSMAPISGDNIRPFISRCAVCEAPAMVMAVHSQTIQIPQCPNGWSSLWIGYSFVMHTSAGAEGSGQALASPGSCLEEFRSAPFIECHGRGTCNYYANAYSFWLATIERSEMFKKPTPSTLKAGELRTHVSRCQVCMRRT
collagen IV, sequence (P08122 184-1707): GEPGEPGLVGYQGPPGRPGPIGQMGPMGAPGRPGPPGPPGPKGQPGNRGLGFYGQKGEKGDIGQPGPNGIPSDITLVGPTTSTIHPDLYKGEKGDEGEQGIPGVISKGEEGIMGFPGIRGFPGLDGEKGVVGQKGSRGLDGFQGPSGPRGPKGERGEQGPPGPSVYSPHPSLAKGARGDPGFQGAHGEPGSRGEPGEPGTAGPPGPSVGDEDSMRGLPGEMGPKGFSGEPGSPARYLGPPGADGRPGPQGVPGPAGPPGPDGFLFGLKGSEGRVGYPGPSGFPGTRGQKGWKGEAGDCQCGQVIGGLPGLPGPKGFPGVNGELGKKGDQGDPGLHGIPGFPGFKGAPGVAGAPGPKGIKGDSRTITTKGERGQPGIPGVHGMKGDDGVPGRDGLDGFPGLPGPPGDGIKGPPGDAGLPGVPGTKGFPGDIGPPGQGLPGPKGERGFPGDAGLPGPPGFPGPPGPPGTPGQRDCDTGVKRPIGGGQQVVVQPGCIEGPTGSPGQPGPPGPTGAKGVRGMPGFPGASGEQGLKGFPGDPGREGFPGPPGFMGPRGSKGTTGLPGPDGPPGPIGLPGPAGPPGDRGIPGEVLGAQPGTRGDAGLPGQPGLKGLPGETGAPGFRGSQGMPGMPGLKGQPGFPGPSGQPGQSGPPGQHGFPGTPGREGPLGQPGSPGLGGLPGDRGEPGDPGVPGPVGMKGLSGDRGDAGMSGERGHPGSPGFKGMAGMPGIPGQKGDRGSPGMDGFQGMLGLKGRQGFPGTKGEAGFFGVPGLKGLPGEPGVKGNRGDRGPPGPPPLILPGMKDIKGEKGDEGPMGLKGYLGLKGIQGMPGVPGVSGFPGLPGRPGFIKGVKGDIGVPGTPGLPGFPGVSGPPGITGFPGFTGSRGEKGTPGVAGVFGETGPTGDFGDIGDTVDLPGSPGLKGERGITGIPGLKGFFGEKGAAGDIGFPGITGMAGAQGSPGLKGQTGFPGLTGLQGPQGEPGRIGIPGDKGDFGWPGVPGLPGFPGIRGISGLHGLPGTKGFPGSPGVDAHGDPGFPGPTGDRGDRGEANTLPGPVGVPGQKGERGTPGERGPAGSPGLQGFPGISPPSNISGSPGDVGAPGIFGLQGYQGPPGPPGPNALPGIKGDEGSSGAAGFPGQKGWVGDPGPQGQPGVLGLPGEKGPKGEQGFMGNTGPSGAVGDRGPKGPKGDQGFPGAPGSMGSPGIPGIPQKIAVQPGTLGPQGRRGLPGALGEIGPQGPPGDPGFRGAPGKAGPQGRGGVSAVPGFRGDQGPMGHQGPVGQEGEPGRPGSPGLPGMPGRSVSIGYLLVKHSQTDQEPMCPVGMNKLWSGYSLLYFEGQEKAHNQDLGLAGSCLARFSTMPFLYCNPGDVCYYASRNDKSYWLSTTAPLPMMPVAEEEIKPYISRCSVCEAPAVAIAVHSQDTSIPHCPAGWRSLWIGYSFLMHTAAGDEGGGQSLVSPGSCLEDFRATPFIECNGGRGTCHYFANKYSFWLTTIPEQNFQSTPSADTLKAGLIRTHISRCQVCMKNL

CBP-Hep(Cy5): Cy5-labelled heparin conjugated with CBP by EDC/NHS chemistry (CQDSETRTFY; also: conjugated to Cy5-labelled heparin by EDC/NHS, place not given here)
binding to collagen IV relative to scrambled CBPi control: four times more
